Experimental data published in the supplement of paper PMC9732359.
± gives the uncertainty stated by the source.

Test: protein stability index of a GFP-peptide fusion (yeast GPS) (PSI 1-4); higher = more stable; sorted into four equal gates, so the index is relative within each strain
Outline: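 Yeast carrying a pooled library were grown to mid-log phase in leucine-free medium. Each library plasmid expresses Cherry and has a tiled 17-residue yeast protein peptide fused downstream of GFP. Cells were sorted into four equal gates by GFP/Cherry ratio, and plasmids from each gate were PCR-amplified, Illumina-sequenced and assigned to strains by barcode. Summing, across gates, the read frequency times the gate number gave each peptide's protein stability index.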

| Sequence | protein stability index (doa10∆) | protein stability index (pdr5∆) | protein stability index (san1∆) | protein stability index (ubr1∆) |
| --- | --- | --- | --- | --- |
| FVTQFRHLRRTGKVSEF [RET1] | 3.15 ± 0.24 | 2.5 ± 0.17 | 3.07 ± 0.093 | 2.41 ± 0.075 |
| NKKGRGHVKPVRCVNCS [RPS26A] | 3.18 ± 0.065 | 2.98 ± 0.077 | 2.98 ± 0.085 | 3.02 ± 0.076 |
| THIPQTNLKNHPAYLFK [YLR018C/POM34] | 2.84 ± 0.059 | 2.83 ± 0.04 | 2.64 ± 0.054 | 2.75 ± 0.029 |
| QEQLKQMDQQLQYTALT [ARP7] | 2.71 ± 0.16 | 2.67 ± 0.25 | 2.55 ± 0.2 | 3 ± 0.18 |
| QPQETEEHHEEEPSRVD [RPT4] | 3.56 ± 0.064 | 3.44 ± 0.1 | 3.23 ± 0.074 | 3.22 ± 0.086 |
| TTIEEIFLHSLPVKEFQ [RPS2] | 2.82 ± 0.067 | 2.78 ± 0.069 | 3.01 ± 0.067 | 2.79 ± 0.073 |
| PGYVDIVKTSSGNEMPP [RPS19A] | 2.67 ± 0.19 | 2.86 ± 0.11 | 2.84 ± 0.11 | 3.11 ± 0.088 |
| FLQRIDFQIDGNIFELL [RRI2] | 2.63 ± 0.1 | 2.92 ± 0.071 | 2.37 ± 0.07 | 2.64 ± 0.048 |
| AFGSSATDISGELRDYI [YJR042W/NUP85] | 3.26 ± 0.14 | 3.54 ± 0.13 | 2.81 ± 0.11 | 3.28 ± 0.083 |
| KAEVTQLSNGIVVATEH [COR1] | 2.58 ± 0.17 | 3.15 ± 0.11 | 3.18 ± 0.18 | 2.96 ± 0.11 |
| LKNKKEIYRISFQLSKI [RPS9A] | 3.03 ± 0.12 | 3.09 ± 0.084 | 3.1 ± 0.089 | 3.2 ± 0.058 |
| NDSSATRSWRPPQAGDR [RPB8] | 3.06 ± 0.26 | – | – | 2.76 ± 0.26 |
| KGKYRNRRWTQRRGPLV [RPL4A] | 2.97 ± 0.17 | 3.29 ± 0.18 | – | – |
| QRQDFERVRLRPEQLSN [SNF6] | 1.98 ± 0.05 | 2.43 ± 0.062 | 2.21 ± 0.064 | 2.25 ± 0.034 |
| KEIYYTPDPSELAAKEE [FAS2] | 2.631 ± 0.023 | 2.748 ± 0.023 | 2.601 ± 0.024 | 2.531 ± 0.017 |
| PSRQFDHYESNQLVAKL [SRB8] | 3.02 ± 0.061 | 2.85 ± 0.064 | 2.98 ± 0.064 | 3.17 ± 0.041 |
| ASLNALKESIKNSTSSM [RPN1] | 3.07 ± 0.087 | 3.25 ± 0.098 | 3.06 ± 0.063 | 3.16 ± 0.076 |
| TTIKAIFDGNYGESDIH [YMR129W/POM152] | 3.23 ± 0.09 | 2.97 ± 0.14 | 3.58 ± 0.2 | 2.89 ± 0.12 |
| IDEIAYLFHNDRIIHTW [ECM29] | 1.4 ± 0.049 | 1.43 ± 0.054 | 1.3 ± 0.081 | 1.66 ± 0.043 |
| ALIKFMEYHISNTDETK [FAS2] | 2.77 ± 0.1 | 2.5 ± 0.077 | 2.59 ± 0.12 | 2.3 ± 0.055 |
| TKDLLSKSPSEWQDIIH [CSE2] | 3.1 ± 0.082 | 2.99 ± 0.077 | 3.07 ± 0.075 | 3.17 ± 0.049 |
| EIQPRANIQLDFPELKP [FAS2] | 3.13 ± 0.064 | 3.11 ± 0.063 | 3.12 ± 0.076 | 3.26 ± 0.042 |
| KGVTEKDAVDYSKIPNI [RRP6] | 3.24 ± 0.12 | 3.18 ± 0.092 | 3.25 ± 0.08 | 3.3 ± 0.069 |
| FDKDLERDTFSDFTFPE [DIS3] | 2.11 ± 0.15 | 1.88 ± 0.13 | 1.24 ± 0.17 | 1.32 ± 0.15 |
| LIFGTIASKMSLAPEAD [RPT3] | 2.66 ± 0.044 | 2.78 ± 0.064 | 2.75 ± 0.041 | 2.65 ± 0.038 |

| Sequence | protein stability index (doa10∆) | protein stability index (pdr5∆) | protein stability index (san1∆) | protein stability index (ubr1∆) |
| --- | --- | --- | --- | --- |
| RIHRLARYYRTVAVLPP [RPS13] | 1.83 ± 0.088 | 1.8 ± 0.06 | 2.44 ± 0.074 | 2.11 ± 0.046 |
| QKKILSIRLKVPPTIAQ [RPL8A] | 1.53 ± 0.037 | 1.66 ± 0.037 | 1.5 ± 0.06 | 1.69 ± 0.029 |
| PPSSFGRSHTRNSTRSS [REC8] | 3.04 ± 0.14 | 2.65 ± 0.17 | 3.14 ± 0.087 | 2.96 ± 0.17 |
| MTVTFLILAGQVKVKGQ [YCS4] | 2.34 ± 0.083 | 2.27 ± 0.074 | 2.3 ± 0.086 | 1.83 ± 0.057 |
| RIKEMYWKLWIDEPFNL [FAS1] | 3.39 ± 0.086 | 3.25 ± 0.078 | 2.76 ± 0.12 | 2.91 ± 0.075 |
| YKLNVRSNDPQSSLSKV [NUT2] | 3.21 ± 0.12 | 3.42 ± 0.12 | 3.33 ± 0.071 | 3.41 ± 0.095 |
| TSIARIGDYILKSPVLS [QCR7] | 1.5 ± 0.045 | 1.72 ± 0.045 | 1.49 ± 0.075 | 1.98 ± 0.033 |
| TQPKAEATQDDDFDMLF [NUT1] | 2.73 ± 0.069 | 3.15 ± 0.051 | 2.99 ± 0.053 | 3.14 ± 0.043 |
| KRSGVIETVDDKLKDIV [ITC1] | 3.15 ± 0.29 | 3 ± 0.3 | – | – |
| NVTGGKAANFIQNQSPQ [SWI1] | 2.77 ± 0.062 | 2.79 ± 0.063 | 2.87 ± 0.051 | 2.99 ± 0.047 |
| KTEDGFVIPALPAAVSK [RPC82] | – | 2.41 ± 0.26 | – | 2.8 ± 0.2 |
| ELLETVSLTKRKQEREI [YIL149C/MLP2] | 1.43 ± 0.095 | 1.61 ± 0.07 | 1.5 ± 0.19 | 1.12 ± 0.036 |
| NIEERKEKIQHELGINI [BRR2] | 3.02 ± 0.094 | 3.34 ± 0.075 | 3.52 ± 0.075 | 3.22 ± 0.1 |
| ISAEDRADTDLAMNDDD [SNF2] | 3.44 ± 0.23 | 3.45 ± 0.14 | 3.35 ± 0.069 | 3.32 ± 0.085 |
| VHDLNKYKSNTNNMEKI [SMC2] | 3.46 ± 0.17 | 3.58 ± 0.14 | 3.02 ± 0.15 | 3.47 ± 0.24 |
| PFKGEVVDGTVVSCSQH [RPB7] | 3.04 ± 0.14 | 3.08 ± 0.1 | 2.92 ± 0.088 | 2.56 ± 0.12 |
| ARKHKLKTLVQGPRSYF [RPS27A] | 3.15 ± 0.14 | 3.34 ± 0.19 | 2.27 ± 0.14 | 2.72 ± 0.19 |
| SEKGFSKEQIHGSIIIL [YCS4] | 2.71 ± 0.12 | 2.37 ± 0.077 | 2.76 ± 0.076 | 2.73 ± 0.087 |
| RANLRKYREGQVLFQGL [POP1] | 2.83 ± 0.095 | 2.31 ± 0.071 | 2.02 ± 0.088 | 2.96 ± 0.063 |
| NNVTSNPSEFTPNMVNS [SSN2] | 2.93 ± 0.063 | 3.03 ± 0.053 | 2.66 ± 0.09 | 3.1 ± 0.05 |
| KFSSRHGQKGVCGIIVK [RET1] | 3.56 ± 0.095 | 3.51 ± 0.092 | 3.71 ± 0.051 | 3.14 ± 0.12 |
| KRKTNIIMFVGLQGSGK [SRP54] | 2.69 ± 0.067 | 2.78 ± 0.068 | 3.09 ± 0.06 | 2.87 ± 0.038 |
| KIKPYVRSFSKALDELK [LRP1] | 2.52 ± 0.04 | 2.95 ± 0.037 | 2.35 ± 0.047 | 2.68 ± 0.027 |
| AKYHAKLNKKLQHLRSR [SRP68] | 3.3 ± 0.088 | 3.44 ± 0.078 | 3.26 ± 0.046 | 3.07 ± 0.059 |
| LSQNESTRASTVPNLPT [ISW2] | 2.17 ± 0.056 | 2.5 ± 0.063 | 2.46 ± 0.045 | 2.6 ± 0.048 |
